The values that follow are results of earlier work, collected in publication PMC8217106.

This data set deals with BCL9 (Homo sapiens) (UniProt O00512).
Sequence of UniProt O00512 (O00512 whole entry): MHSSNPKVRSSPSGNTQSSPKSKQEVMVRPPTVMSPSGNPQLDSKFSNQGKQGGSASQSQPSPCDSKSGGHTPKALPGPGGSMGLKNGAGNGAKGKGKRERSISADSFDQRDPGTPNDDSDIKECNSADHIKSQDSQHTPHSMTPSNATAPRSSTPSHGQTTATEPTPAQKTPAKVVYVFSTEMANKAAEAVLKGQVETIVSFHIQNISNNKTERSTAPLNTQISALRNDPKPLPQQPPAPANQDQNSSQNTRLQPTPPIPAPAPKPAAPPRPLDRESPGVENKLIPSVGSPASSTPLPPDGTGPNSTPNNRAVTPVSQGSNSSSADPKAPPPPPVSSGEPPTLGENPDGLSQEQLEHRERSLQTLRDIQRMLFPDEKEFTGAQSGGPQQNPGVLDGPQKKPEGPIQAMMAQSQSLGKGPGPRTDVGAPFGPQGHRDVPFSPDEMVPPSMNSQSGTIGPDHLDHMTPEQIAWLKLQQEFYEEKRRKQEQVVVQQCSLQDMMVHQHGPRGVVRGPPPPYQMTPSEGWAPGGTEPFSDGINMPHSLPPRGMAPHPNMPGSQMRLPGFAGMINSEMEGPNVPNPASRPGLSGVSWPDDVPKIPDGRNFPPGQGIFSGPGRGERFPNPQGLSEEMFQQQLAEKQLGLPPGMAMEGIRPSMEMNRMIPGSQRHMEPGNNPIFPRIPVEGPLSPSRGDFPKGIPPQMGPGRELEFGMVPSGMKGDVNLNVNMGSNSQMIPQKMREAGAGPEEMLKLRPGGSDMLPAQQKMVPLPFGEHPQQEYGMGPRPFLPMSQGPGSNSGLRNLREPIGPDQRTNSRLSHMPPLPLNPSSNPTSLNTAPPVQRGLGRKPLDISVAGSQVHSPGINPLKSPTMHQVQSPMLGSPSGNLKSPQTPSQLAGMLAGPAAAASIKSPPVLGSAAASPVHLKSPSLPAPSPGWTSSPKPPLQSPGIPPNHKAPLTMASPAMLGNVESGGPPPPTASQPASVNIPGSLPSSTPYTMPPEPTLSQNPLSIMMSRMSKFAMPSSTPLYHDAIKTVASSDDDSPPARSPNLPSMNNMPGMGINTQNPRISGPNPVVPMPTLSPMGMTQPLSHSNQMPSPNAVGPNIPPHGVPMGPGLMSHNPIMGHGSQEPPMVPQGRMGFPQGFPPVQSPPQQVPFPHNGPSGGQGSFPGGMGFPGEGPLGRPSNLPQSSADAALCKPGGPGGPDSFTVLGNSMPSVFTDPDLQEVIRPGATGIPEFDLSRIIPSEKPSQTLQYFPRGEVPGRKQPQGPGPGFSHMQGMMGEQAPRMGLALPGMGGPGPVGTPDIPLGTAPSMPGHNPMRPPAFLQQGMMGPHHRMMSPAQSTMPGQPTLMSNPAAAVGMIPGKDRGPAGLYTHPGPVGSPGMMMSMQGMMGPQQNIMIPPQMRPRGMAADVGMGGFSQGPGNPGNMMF

The term Kd denotes the concentration at which binding is half-saturated. Turning to β-catenin (from UniProt P35222), the Kd was 470 nM.
